From patent US6673354B2, “Compositions and methods for treating papillomavirus-infected cells” (priority 1998, dated 2004) come the findings set out here.

Where no end group is shown, it is not given here.

In experiment [1] the target is T1, interaction between HPV16 E1 and E2 (Human papillomavirus type 16, UniProt P03114).
T1 construct: made in house; host or cells: Hi-Five insect cells infected with recombinant baculovirus (pVL1392); nuclear extracts
T1 sequence (P03114 whole entry, looked up): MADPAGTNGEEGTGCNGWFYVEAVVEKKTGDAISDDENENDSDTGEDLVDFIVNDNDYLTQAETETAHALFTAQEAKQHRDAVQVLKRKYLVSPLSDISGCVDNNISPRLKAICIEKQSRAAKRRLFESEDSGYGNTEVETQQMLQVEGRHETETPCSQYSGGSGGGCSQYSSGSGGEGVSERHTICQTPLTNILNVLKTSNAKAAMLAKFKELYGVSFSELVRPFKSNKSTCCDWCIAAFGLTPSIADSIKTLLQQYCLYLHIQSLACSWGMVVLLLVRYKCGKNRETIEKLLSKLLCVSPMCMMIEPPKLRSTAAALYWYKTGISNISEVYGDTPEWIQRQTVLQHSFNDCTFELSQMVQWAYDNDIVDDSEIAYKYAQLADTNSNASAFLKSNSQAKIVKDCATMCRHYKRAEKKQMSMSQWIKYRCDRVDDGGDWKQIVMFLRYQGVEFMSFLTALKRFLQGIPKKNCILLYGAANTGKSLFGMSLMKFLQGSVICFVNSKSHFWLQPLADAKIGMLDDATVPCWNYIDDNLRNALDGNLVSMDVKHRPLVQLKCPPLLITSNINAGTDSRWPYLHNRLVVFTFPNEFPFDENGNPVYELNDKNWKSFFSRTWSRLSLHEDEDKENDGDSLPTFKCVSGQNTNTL
Briefly: In vitro HPV E1-E2 binding assay (co-immunoprecipitation / Western blot), HPV16 E1 and HPV16 E2. Conditions: increasing peptide concentrations, FIG. 6A. On the procedure:
(§1) In vitro HPV E1-E2 binding assay. 300-500 ng protein from HPV16 or HPV11 EE-E1 expressing recombinant baculovirus infected cell nuclear extracts and 80-120 ng from HPV E2 baculovirus infected cell nuclear extracts were incubated in 500 μl NET-gel buffer (50 mM Tris-HCl pH7.5, 150 mM NaCl, 0.1% NP-40, 1 mM EDTA, 0.25% gelatin) at 4° C. for one hour. 1-2 μg anti-EE monoclonal antibody was added and incubated with shaking at 4° C. for one hour. Immune complexes were precipitated with protein-G agarose beads and washed twice for 30 minutes with ice cold NET-gel buffer. Precipitated proteins were detected by Western blot using appropriate primary antibodies and anti-rabbit IgG HRP or anti-mouse IgG HRP (Amersham). Membranes were blocked for one hour in TNET (10 mM Tris 7.5, 2.5 mM EDTA, 50 mM NaCl, 0.1% Tween-20) containing 4% (w/v) dry milk. Washes and antibody reactions were carried out in TNET, and proteins were visualized by chemiluminescence (Reneaissance ECL, NEN) and autoradiography. Bands were quantitated using the NIH image program.
Therefore, we reasoned that a peptide encompassing this domain of HPV16 E2 might inhibit interaction between HPV16 E1 and E2, thereby inhibiting HPV16 DNA replication (FIG. 5). In order to test this possibility, HPV16 E2 and epitope tagged full length HPV16 E1 (EE16-E1) proteins were expressed separately using baculovirus vectors. EE-E1 and associated E2 proteins were immunoprecipitated using an anti-EE epitope monoclonal antibody. Precipitated E2 was detected by Western blot using polyclonal antiserum raised to the DNA binding domain of HPV16 E2 (35). As shown in lane 2 of FIG. 6A, E2 co-immunoprecipitated with EE16-E1, but was not precipitated by the EE epitope antibody in the absence of EE16-E1 (lane 1). Peptides encompassing HPV16 E2 amino acids 29-51 (E2N-WP23) or residues 33-47 (E2N-WP15) of HPV16 E2 were then tested for inhibition of E1-E2 interaction. These peptide sequences were derived from the sequence of HPV16 E2, and were based on an alignment of amino terminal residues that are conserved among the papillomavirus E2 proteins (FIG. 5). […] Both the HPV16 E2 protein itself and the E2 derived peptides act specifically in these assays, since the E39A replication defective HPV16 E2 mutant bound only slightly to EE16-E1 (lanes 14). […] These peptides are named E2N-MP23 and E2N-MP15, respectively (see FIG. 5). […] We have previously shown that a domain spanning amino acids 421-647 of the HPV16 E1 carboxy terminus is necessary and sufficient for E2 interaction (45).
Background: Immunoblotting shows a protein as a band on a membrane.

Experiment [2] has as its target T2, interaction between HPV11 E1 and HPV16 E2 (Human papillomavirus 11, UniProt P04014).
T2 construct: made in house; host or cells: Hi-Five insect cells infected with recombinant baculovirus (HPV-11 EE-E1 virus a gift from Louise Chow); nuclear extracts
T2 sequence (P04014 whole entry, looked up): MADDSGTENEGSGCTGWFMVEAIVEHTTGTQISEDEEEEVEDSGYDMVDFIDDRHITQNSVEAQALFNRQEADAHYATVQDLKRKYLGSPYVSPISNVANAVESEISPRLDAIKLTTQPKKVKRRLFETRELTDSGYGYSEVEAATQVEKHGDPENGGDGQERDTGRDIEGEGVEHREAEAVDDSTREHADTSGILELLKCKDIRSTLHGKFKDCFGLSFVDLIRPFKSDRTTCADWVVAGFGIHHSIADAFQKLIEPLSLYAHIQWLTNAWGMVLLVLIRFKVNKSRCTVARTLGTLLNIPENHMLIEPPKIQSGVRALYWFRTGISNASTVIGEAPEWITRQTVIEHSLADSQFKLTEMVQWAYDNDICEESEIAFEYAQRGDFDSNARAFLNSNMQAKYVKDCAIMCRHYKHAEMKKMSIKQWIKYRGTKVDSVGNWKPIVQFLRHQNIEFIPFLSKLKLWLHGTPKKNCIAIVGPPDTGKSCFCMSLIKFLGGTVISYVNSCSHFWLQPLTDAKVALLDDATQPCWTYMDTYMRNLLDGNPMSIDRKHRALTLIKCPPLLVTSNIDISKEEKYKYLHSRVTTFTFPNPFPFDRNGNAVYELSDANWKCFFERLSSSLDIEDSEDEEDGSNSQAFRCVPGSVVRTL
The experiment can be described thus: In vitro HPV E1-E2 binding assay, HPV11 E1 and HPV16 E2. On the procedure: as §1
Very little is known about the physical properties of domains within the papillomavirus E1 and E2 proteins that are involved in intermolecular recognition and association. […] The effect of the E2N-WP15 peptide on these interactions was also assessed. […]

WKHMRLACAIYYKAR [E2N-MP15]: in experiment [1], the “inhibition of HPV16 E1-E2 interaction” value is “did not inhibit E1-E2 interaction at concentrations at which the wild type peptide could do so”. In addition, the “inhibition of interaction between HPV11 E1 and HPV16 E2” value in experiment [2] is on record as “did not inhibit”.
